Test results from the supplement of paper PMC9233669.
This sample holds only a part of the variants without activity.

How the values were obtained:
biotinyl-Trp-oxazolone = experiment: self-aminoacylation, catalytic enhancement (BWO) (fold over background); higher = more active; k-Seq, kA / k0A0; sequences stand for … in GGGAAUGGAUCCACAUCUACGAAUUC…UUCACUGCAGACUUGACGAAGCUG
Summary of the method: (§1)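 Mutagenized RNA pools with a 21-nt variable region (0.43 μM) were reacted with each biotinyl-aminoacyl-oxazolone at 2–1250 μM for 90 minutes at room temperature, in 50 μL HEPES/NaCl/KCl/MgCl2/CaCl2 buffer containing 5% acetonitrile at pH 6.9–7.0. RNA captured on streptavidin was quantified by triplicate qPCR and by Illumina sequencing. The fraction reacted for each sequence was fit to a pseudo-first-order model with bootstrapping, and catalytic enhancement is the median kA divided by the uncatalyzed rate, taken as the low-activity peak of a bimodal Gaussian fit.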

biotinyl-Leu-oxazolone = experiment: self-aminoacylation, catalytic enhancement (BLO) (fold over background); higher = more active; k-Seq, kA / k0A0; sequences stand for … in GGGAAUGGAUCCACAUCUACGAAUUC…UUCACUGCAGACUUGACGAAGCUG
Summary of the method: as §1

biotinyl-Ile-oxazolone = experiment: self-aminoacylation, catalytic enhancement (BIO) (fold over background); higher = more active; k-Seq, kA / k0A0; sequences stand for … in GGGAAUGGAUCCACAUCUACGAAUUC…UUCACUGCAGACUUGACGAAGCUG
Summary of the method: as §1

biotinyl-Met-oxazolone = experiment: self-aminoacylation, catalytic enhancement (BMO) (fold over background); higher = more active; k-Seq, kA / k0A0; sequences stand for … in GGGAAUGGAUCCACAUCUACGAAUUC…UUCACUGCAGACUUGACGAAGCUG
Summary of the method: as §1

biotinyl-Phe-oxazolone = experiment: self-aminoacylation, catalytic enhancement (BFO) (fold over background); higher = more active; k-Seq, kA / k0A0; sequences stand for … in GGGAAUGGAUCCACAUCUACGAAUUC…UUCACUGCAGACUUGACGAAGCUG
Summary of the method: as §1

biotinyl-Val-oxazolone = experiment: self-aminoacylation, catalytic enhancement (BVO) (fold over background); higher = more active; k-Seq, kA / k0A0; sequences stand for … in GGGAAUGGAUCCACAUCUACGAAUUC…UUCACUGCAGACUUGACGAAGCUG
Summary of the method: as §1

Sequence	self-aminoacylation (biotinyl-Trp-oxazolone)	self-aminoacylation (biotinyl-Leu-oxazolone)	self-aminoacylation (biotinyl-Ile-oxazolone)	self-aminoacylation (biotinyl-Met-oxazolone)	self-aminoacylation (biotinyl-Phe-oxazolone)	self-aminoacylation (biotinyl-Val-oxazolone)
AUUCCCCUAGGUAAUCGGGUG [Fam2.2 aminoacylation ribozyme variant]	11.6	16.3	7.5	10.7	90.8	6.58
AUUCCCCUAGGUCAUCGAGUG [Fam2.2 aminoacylation ribozyme variant]	12.6	15	7.79	11	66.1	7.52
AUUCCCCUAGGUCAUCGGCUG [Fam2.2 aminoacylation ribozyme variant]	6.44	7.58	8.03	6.91	30.9	7.07
AUUCCCCUAGGUCAUCGGGUU [Fam2.2 aminoacylation ribozyme variant]	7.29	8.02	6.34	5.77	36.7	6.74
AUUCCCCUAGGUCAUCGGUUG [Fam2.2 aminoacylation ribozyme variant]	2.16	3.94	3.4	3.19	11.7	3.38
AUUCCCCUAGGUCAUCGUGUG [Fam2.2 aminoacylation ribozyme variant]	4.05	4.37	3.28	3.02	20.7	4.25
AUUCCCCUAGGUUAUCGGGUG [Fam2.2 aminoacylation ribozyme variant]	20	27.6	12.9	20	187	13.3
AUUCCCCUAGUCAUCGAGUGA [Fam2.1 aminoacylation ribozyme variant]	15.3	11.6	6.5	11.5	66.1	7.18
AUUCCCCUAGUUCAUCGGGUG [Fam2.2 aminoacylation ribozyme variant]	10.2	10.1	6.72	7.78	56.5	6.85
AUUCCCCUCGGUCAUCGGGUG [Fam2.2 aminoacylation ribozyme variant]	22.6	30.8	14.8	21.1	211	14
AUUCCCCUGGACAUCGAGUGA [Fam2.1 aminoacylation ribozyme variant]	7.13	6.77	3.41	6	35.4	3.45
AUUCCCCUGGUCAUCGAGAGA [Fam2.1 aminoacylation ribozyme variant]	1.96	1.17	1.46	1.68	3.27	1.47
AUUCCCCUGGUCAUCGAGUAA [Fam2.1 aminoacylation ribozyme variant]	1.47	1.35	1.55	1.69	1.42	1.7
